For this assay, the target named is rhBMP-2 (R&D Systems, Item number 355-BM/CF) (human) (UniProt P12643). As to the kind of experiment: retention test: peptide-free EDC/NHS crosslinked collagen disc loaded with 40 micrograms rhBMP-2, spun, unbound rhBMP-2 in supernatant by ELISA; control for the affinity biomatrix. (ELISA stands for enzyme-linked immunosorbent assay.)
rhBMP-2 (R&D Systems, Item number 355-BM/CF) (human), sequence (P12643 283-396 limits assumed): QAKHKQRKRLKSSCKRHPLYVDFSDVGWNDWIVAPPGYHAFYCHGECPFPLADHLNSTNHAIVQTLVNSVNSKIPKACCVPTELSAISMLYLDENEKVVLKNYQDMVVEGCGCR

As for “affinity peptide-free EDC/NHS crosslinked collagen disc (6 mm diameter)”, the % rhBMP-2 incorporation was found to be 40 % by weight.

The values above are taken from patent US20110230406A1.
